This note sets out measurements from patent US12097241B2, “Methods of treating kidney failure, and/or improving or stablizing renal function using modified relaxin polypeptides” (BRISTOL-MYERS SQUIBB COMPANY, priority 2017, dated 2024).

Read-outs that look alike come from different tables or passages of the source.

A short description of series [1]: In vivo pharmacokinetic (PK) studies in rats. Also on record: species or system Sprague-Dawley rats. As to conditions: rat, male Sprague-Dawley rats, single SC dose 1.0 mg/kg, serum ELISA; for AUC(0-inf): read-out: Rat PK AUC Total; for level at time molar at 24 h: read-out: Rat PK C24. The essentials:
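Male Sprague-Dawley rats (n=3) given a single 1 mg/kg IV or SC dose of relaxin constructs in 20 mM histidine, 750 mM NaCl, pH 6.0; jugular serum sampled to 72 h. Serum relaxin by ELISA; Cmax, AUCinf, C24 and half-life from non-compartmental analysis of individual profiles.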
For orientation: In an ELISA, binding on a coated surface is turned into a signal by an enzyme label.

Another series has as its target T1, human RXFP1 receptor (Homo sapiens, UniProt Q9HBX9).
T1 construct: expressed in transfected cells
T1 sequence (Q9HBX9 1-757): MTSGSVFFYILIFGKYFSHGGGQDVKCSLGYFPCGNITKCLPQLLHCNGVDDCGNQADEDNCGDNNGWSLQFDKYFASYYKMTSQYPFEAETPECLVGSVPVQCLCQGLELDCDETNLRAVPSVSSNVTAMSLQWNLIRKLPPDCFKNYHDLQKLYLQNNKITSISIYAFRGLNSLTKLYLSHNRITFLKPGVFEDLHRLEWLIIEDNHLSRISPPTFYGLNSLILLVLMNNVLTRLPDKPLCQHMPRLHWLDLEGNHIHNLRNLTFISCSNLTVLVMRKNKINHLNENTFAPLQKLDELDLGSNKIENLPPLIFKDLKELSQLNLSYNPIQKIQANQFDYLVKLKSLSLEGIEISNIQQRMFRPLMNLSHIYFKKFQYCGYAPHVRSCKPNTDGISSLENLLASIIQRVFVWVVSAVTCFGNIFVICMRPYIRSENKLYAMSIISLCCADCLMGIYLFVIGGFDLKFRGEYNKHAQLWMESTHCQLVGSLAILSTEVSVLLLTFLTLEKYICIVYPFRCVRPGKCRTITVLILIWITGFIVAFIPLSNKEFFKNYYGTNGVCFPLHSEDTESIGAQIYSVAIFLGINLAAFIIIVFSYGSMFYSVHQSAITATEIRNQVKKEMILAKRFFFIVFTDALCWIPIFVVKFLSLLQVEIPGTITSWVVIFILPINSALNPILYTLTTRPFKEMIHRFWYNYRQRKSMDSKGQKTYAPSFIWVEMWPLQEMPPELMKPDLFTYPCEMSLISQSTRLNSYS
The series is described as follows: Intracellular cAMP accumulation assay. The series is classed as cell-based. (cAMP levels reflect the balance of adenylyl cyclase and phosphodiesterase activity.)

Setting [2] is: CHO-K1 cells stably expressing human RXFP1, 10 min at 37° C., HTRF cAMP, average, read-out: hRXFP1/CHO-K1 cAMP EC50 (nM, avg).

With `CC[C@H](C)[C@@H]1NC(=O)[C@H](C)NC(=O)[C@H]([C@@H](C)CC)NC(=O)[C@H](CCC(N)=O)NC(=O)[C@H](C)NC(=O)[C@H](CCCNC(=N)N)NC(=O)[C@H](C(C)C)NC(=O)[C@H](CC(C)C)NC(=O)[C@H](CCC(=O)O)NC(=O)[C@H](CCCNC(=N)N)NC(=O)CNC(=O)[C@@H](NC(=O)[C@H](CC(C)C)NC(=O)[C@H](CCCCN)NC(=O)[C@@H](NC(=O)[C@@H](NC(=O)[C@H](CCC(=O)O)NC(=O)[C@H](CCC(=O)O)NC(=O)[C@H](CCSC)NC(=O)[C@H](Cc2c[nH]c3ccccc23)NC(=O)[C@H](CO)NC(=O)[C@H](C)N)C(C)C)[C@@H](C)CC)CSSC[C@@H]2NC(=O)[C@@H](NC(=O)[C@H](CCCCN)NC(=O)[C@H](CC(N)=O)NC(=O)[C@H](C)NC(=O)[C@H](CC(C)C)NC(=O)[C@H](C)NC(=O)[C@H](CO)NC(=O)[C@H](Cc3ccc(O)cc3)NC(=O)[C@H](CC(C)C)NC(=O)[C@@H](N)Cc3ccc(C(C)=NOCCNC(=O)[C@H](CCCCN)NC(=O)[C@H](CCCCN)NC(=O)[C@H](CCCCN)NC(=O)[C@H](CO)NC(=O)CNC(=O)CNC(=O)[C@H](CO)NC(=O)CNC(=O)CNC(=O)CC[C@H](NC(=O)CCCCCCCCCCCCC(=O)O)C(=O)O)cc3)CSSC[C@H](NC(=O)CNC(=O)[C@H](C(C)C)NC(=O)[C@H](Cc3c[nH]cn3)NC2=O)C(=O)N[C@@H]([C@@H](C)O)C(=O)N[C@@H](CCCCN)C(=O)N[C@@H](CCCNC(=N)N)C(=O)N[C@@H](CO)C(=O)N[C@@H](CC(C)C)C(=O)N[C@@H](C)C(=O)N[C@@H](CCCNC(=N)N)C(=O)N[C@@H](Cc2ccccc2)C(=O)N[C@H](C(=O)O)CSSC[C@@H](C(=O)NCC(=O)N[C@@H](CCSC)C(=O)N[C@@H](CO)C(=O)N[C@H](C(=O)N[C@@H](Cc2c[nH]c3ccccc23)C(=O)N[C@@H](CO)C(=O)O)[C@@H](C)O)NC1=O` [AQ1-KKKSGGSGG-Glu^γ-C13-COOH], in series [1], the AUC(0-inf) worked out at 0.264 µM·h and the level at time molar at 24 h was 0.21 nM. In addition, at human RXFP1 receptor, the EC50 amounted to 0.14 nM.
As to `CC[C@H](C)[C@@H]1NC(=O)[C@H](C)NC(=O)[C@H]([C@@H](C)CC)NC(=O)[C@H](CCC(N)=O)NC(=O)[C@H](C)NC(=O)[C@H](CCCNC(=N)N)NC(=O)[C@H](C(C)C)NC(=O)[C@H](CC(C)C)NC(=O)[C@H](CCC(=O)O)NC(=O)[C@H](CCCNC(=N)N)NC(=O)CNC(=O)[C@@H](NC(=O)[C@H](CC(C)C)NC(=O)[C@H](CCCCN)NC(=O)[C@@H](NC(=O)[C@@H](NC(=O)[C@H](CCC(=O)O)NC(=O)[C@H](CCC(=O)O)NC(=O)[C@H](CCSC)NC(=O)[C@H](Cc2c[nH]c3ccccc23)NC(=O)[C@H](CO)NC(=O)[C@H](C)N)C(C)C)[C@@H](C)CC)CSSC[C@@H]2NC(=O)[C@@H](NC(=O)[C@H](CCCCN)NC(=O)[C@H](CC(N)=O)NC(=O)[C@H](C)NC(=O)[C@H](CC(C)C)NC(=O)[C@H](C)NC(=O)[C@H](CO)NC(=O)[C@H](Cc3ccc(O)cc3)NC(=O)[C@H](CC(C)C)NC(=O)[C@@H](N)Cc3ccc(C(C)=NOCCNC(=O)[C@H](CCCCN)NC(=O)[C@H](CCCCN)NC(=O)CC[C@H](NC(=O)CCCCCCCCCCCCCC(=O)O)C(=O)O)cc3)CSSC[C@H](NC(=O)CNC(=O)[C@H](C(C)C)NC(=O)[C@H](Cc3c[nH]cn3)NC2=O)C(=O)N[C@@H]([C@@H](C)O)C(=O)N[C@@H](CCCCN)C(=O)N[C@@H](CCCNC(=N)N)C(=O)N[C@@H](CO)C(=O)N[C@@H](CC(C)C)C(=O)N[C@@H](C)C(=O)N[C@@H](CCCNC(=N)N)C(=O)N[C@@H](Cc2ccccc2)C(=O)N[C@H](C(=O)O)CSSC[C@@H](C(=O)NCC(=O)N[C@@H](CCSC)C(=O)N[C@@H](CO)C(=O)N[C@H](C(=O)N[C@@H](Cc2c[nH]c3ccccc23)C(=O)N[C@@H](CO)C(=O)O)[C@@H](C)O)NC1=O` [AQ1-KK-Glu^γ-C14-COOH], in series [1], the AUC(0-inf) was 0.451 µM·h and the level at time molar at 24 h was found to be 1.5 nM. The EC50 on human RXFP1 receptor was 0.34 nM.
In the case of `CC[C@H](C)[C@@H]1NC(=O)[C@H](C)NC(=O)[C@H]([C@@H](C)CC)NC(=O)[C@H](CCC(N)=O)NC(=O)[C@H](C)NC(=O)[C@H](CCCNC(=N)N)NC(=O)[C@H](C(C)C)NC(=O)[C@H](CC(C)C)NC(=O)[C@H](CCC(=O)O)NC(=O)[C@H](CCCNC(=N)N)NC(=O)CNC(=O)[C@@H](NC(=O)[C@H](CC(C)C)NC(=O)[C@H](CCCCN)NC(=O)[C@@H](NC(=O)[C@@H](NC(=O)[C@H](CCC(=O)O)NC(=O)[C@H](CCC(=O)O)NC(=O)[C@H](CCSC)NC(=O)[C@H](Cc2c[nH]c3ccccc23)NC(=O)[C@H](CO)NC(=O)[C@H](C)N)C(C)C)[C@@H](C)CC)CSSC[C@@H]2NC(=O)[C@@H](NC(=O)[C@H](CCCCN)NC(=O)[C@H](CC(N)=O)NC(=O)[C@H](C)NC(=O)[C@H](CC(C)C)NC(=O)[C@H](C)NC(=O)[C@H](CO)NC(=O)[C@H](Cc3ccc(O)cc3)NC(=O)[C@H](CC(C)C)NC(=O)[C@@H](N)Cc3ccc(C(C)=NOCCNC(=O)[C@H](CC(=O)O)NC(=O)[C@H](CCCNC(=N)N)NC(=O)[C@H](CC(=O)O)NC(=O)[C@H](CC(=O)O)NC(=O)[C@H](CCCNC(=N)N)NC(=O)[C@H](CC(=O)O)NC(=O)CCCCCCCCCCCCC(=O)O)cc3)CSSC[C@H](NC(=O)CNC(=O)[C@H](C(C)C)NC(=O)[C@H](Cc3c[nH]cn3)NC2=O)C(=O)N[C@@H]([C@@H](C)O)C(=O)N[C@@H](CCCCN)C(=O)N[C@@H](CCCNC(=N)N)C(=O)N[C@@H](CO)C(=O)N[C@@H](CC(C)C)C(=O)N[C@@H](C)C(=O)N[C@@H](CCCNC(=N)N)C(=O)N[C@@H](Cc2ccccc2)C(=O)N[C@H](C(=O)O)CSSC[C@@H](C(=O)NCC(=O)N[C@@H](CCSC)C(=O)N[C@@H](CO)C(=O)N[C@H](C(=O)N[C@@H](Cc2c[nH]c3ccccc23)C(=O)N[C@@H](CO)C(=O)O)[C@@H](C)O)NC1=O` [AQ1-DRDDRD-C13-COOH], in series [1], the AUC(0-inf) is 1.01 µM·h and the level at time molar at 24 h was determined as 0.38 nM. Moreover, the EC50 at human RXFP1 receptor (setting [2]) came to 0.32 nM.
In the same order, the values of `CC[C@H](C)[C@@H]1NC(=O)[C@H](C)NC(=O)[C@H]([C@@H](C)CC)NC(=O)[C@H](CCC(N)=O)NC(=O)[C@H](C)NC(=O)[C@H](CCCNC(=N)N)NC(=O)[C@H](C(C)C)NC(=O)[C@H](CC(C)C)NC(=O)[C@H](CCC(=O)O)NC(=O)[C@H](CCCNC(=N)N)NC(=O)CNC(=O)[C@@H](NC(=O)[C@H](CC(C)C)NC(=O)[C@H](CCCCN)NC(=O)[C@@H](NC(=O)[C@@H](NC(=O)[C@H](CCC(=O)O)NC(=O)[C@H](CCC(=O)O)NC(=O)[C@H](CCSC)NC(=O)[C@H](Cc2c[nH]c3ccccc23)NC(=O)[C@H](CO)NC(=O)[C@H](C)N)C(C)C)[C@@H](C)CC)CSSC[C@@H]2NC(=O)[C@@H](NC(=O)[C@H](CCCCN)NC(=O)[C@H](CC(N)=O)NC(=O)[C@H](C)NC(=O)[C@H](CC(C)C)NC(=O)[C@H](C)NC(=O)[C@H](CO)NC(=O)[C@H](Cc3ccc(O)cc3)NC(=O)[C@H](CC(C)C)NC(=O)[C@@H](N)Cc3ccc(/C(C)=N/OCCNC(=O)CNC(=O)[C@H](CO)NC(=O)[C@H](Cc4c[nH]cn4)NC(=O)[C@H](Cc4c[nH]cn4)NC(=O)[C@H](Cc4c[nH]cn4)NC(=O)[C@H](Cc4c[nH]cn4)NC(=O)[C@H](Cc4c[nH]cn4)NC(=O)CNC(=O)[C@H](CO)NC(=O)CC[C@H](NC(=O)CCCCCCCCCCCCC(=O)O)C(=O)O)cc3)CSSC[C@H](NC(=O)CNC(=O)[C@H](C(C)C)NC(=O)[C@H](Cc3c[nH]cn3)NC2=O)C(=O)N[C@@H]([C@@H](C)O)C(=O)N[C@@H](CCCCN)C(=O)N[C@@H](CCCNC(=N)N)C(=O)N[C@@H](CO)C(=O)N[C@@H](CC(C)C)C(=O)N[C@@H](C)C(=O)N[C@@H](CCCNC(=N)N)C(=O)N[C@@H](Cc2ccccc2)C(=O)N[C@H](C(=O)O)CSSC[C@@H](C(=O)NCC(=O)N[C@@H](CCSC)C(=O)N[C@@H](CO)C(=O)N[C@H](C(=O)N[C@@H](Cc2c[nH]c3ccccc23)C(=O)N[C@@H](CO)C(=O)O)[C@@H](C)O)NC1=O` [AQ1-GSHHHHHGS-Glu^γ-C13-COOH] are 0.582 µM·h, 0.46 nM and 0.28 nM.
